Biological target: MART-126-35/HLA-A2.1 tetramer (human)
Experiment: equilibrium tetramer staining at 0.1-25 nM, flow cytometry, Scatchard plot (KD=1/slope)

Kd: 4 to 6 nM
Substance: MART-1 TCR native PBMC (T cells obtained by leukapheresis from the MART-1 TCR donor patient)
